Some targets named below: HLA-B*53:01; HLA-B*35:03; HLA-B*42:01; HLA-B*54:01; HLA-B*35:01; HLA-B*07:02; HLA-B*51:01.
Assay in all cases: IEDB peptide-MHC binding, purified MHC/competitive/radioactivity; filed as Kd, often an IC50 or EC50 that approximates it; ≥ and ≤ were set here for values at or beyond the usual limits of such assays
Holding throughout (conditions): source organism: Toxoplasma gondii

With HPGSVNEFDF, the Kd (in general, a measure of binding affinity in units of concentration) in the test with HLA-B*53:01 is 5.52 µM; with HLA-B*35:03 it was 11.5 µM; with HLA-B*42:01, 0.877 µM; with HLA-B*54:01, 0.854 µM; in the test with HLA-B*35:01, 2.09 µM; with HLA-B*07:02 it was 3.62 µM. For the same sequence, in the test with HLA-B*51:01, the Kd turned out to be 14.7 µM.

The values above are taken from the Immune Epitope Database (IEDB).
